Assays:
[1] = biological target: T1, human ANGPTL8 (human, UniProt Q6UXH0 22-198); test: immunoprecipitation from cell conditioned media, Western blot
T1 construct: also called hANGPTL8; Angiopoietin-like protein 8
T1 sequence: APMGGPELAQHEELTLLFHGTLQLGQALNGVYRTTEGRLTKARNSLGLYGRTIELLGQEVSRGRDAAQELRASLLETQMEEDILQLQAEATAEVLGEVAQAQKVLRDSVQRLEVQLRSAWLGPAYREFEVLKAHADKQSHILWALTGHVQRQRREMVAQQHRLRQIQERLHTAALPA
Description: The selection process involved performing a series of immunoprecipitations (IPs), in which each mAb was incubated with cell conditioned media (CM) containing the human ANGPTL8 protein. A resin that identifies human IgG4 was then applied to the mAb/CM mixtures. The resin beads targeted the mAbs, binding the mAb-human ANGPTL8 complex. A series of Western blots probing for human ANGPTL8 were run on the various fractions of the IPs, and anti-human ANGPTL8 mAbs were selected based on high human ANGPTL8 expression in the IP fractions, with low human ANGPTL8 expression in the unbound fractions.

[2] = biological target: T2, human ANGPTL8 dimer protein with mouse Fc tag (human, UniProt Q6UXH0 22-198); test: sandwich ELISA, biotinylated detection mAb, dimer (mFc) standard
T2 construct: also called hANGPTL8.mFc; dimer form of human ANGPTL8; not shown: mouse Fc tag
T2 sequence: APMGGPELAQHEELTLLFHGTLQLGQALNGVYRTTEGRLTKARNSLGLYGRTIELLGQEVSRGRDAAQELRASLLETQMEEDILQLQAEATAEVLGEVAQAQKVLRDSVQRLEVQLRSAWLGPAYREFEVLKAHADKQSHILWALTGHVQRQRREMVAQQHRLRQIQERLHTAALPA
Description: (§1) Proteins and mAbs stored at −80° C. were thawed and kept on ice, as they were needed. The wells of the ELISA plate were coated with capture mAb, at a concentration of 4 μg/mL in PBS, and a volume of 100 μL/well. The plate was covered with a plate sealer, and stored at 4° C. overnight (approximately 18 hours). The wells of the plate were then washed with 350 μL/well wash buffer (0.1% Tween-20 in PBS), for a total of 3 washes, using an automated plate washer. Excess wash remnants were removed by inverting and tapping the plate against clean paper towels. Blocking buffer (1% Fraction V BSA in PBS) was added at 300 μL/well. The plate was covered with a plate sealer, and placed on a plate shaker at room temperature, shaking at 300 rpm for a minimum of 1 hour.
(§2) After the blocking period, the wells of the ELISA plate were washed again, and excess wash remnants were removed, as previously described. The standards and the diluted samples were added to the plate in duplicate, with 100 μL/well. The plate was covered with a plate sealer and placed on a plate shaker at room temperature, shaking at 500 rpm for 2 hours. The wells of the ELISA plate were washed again, and excess wash remnants were removed, as previously described. The detection mAb was added at a concentration of 400 ng/mL in assay diluent (1% Fraction V BSA/0.1% Tween-20 in PBS), with 150 μL/well. […]

[3] = biological target: T1, human ANGPTL8; test: sandwich ELISA on ex vivo serum samples
Description: as §1, §2

[4] = biological target: T2, human ANGPTL8 dimer protein with mouse …; test: sandwich ELISA, capture mAb, dimer (mFc) standard
Description: as §1, §2

Binder | binding result [1] | binding result [2] | binding result [3] | binding result [4]
H4H15318P (antibody, V domains shown, Used unlabelled in the immunoprecipitation and as capture mAb, and biotinylated as detection mAb in the sandwich ELISA; also called biotin-H4H15318P; biotinylated anti-human C19orf80 (ANGPTL8) (biotin-H4H15318P)) VH: QVQLVESGGGVVQPGRSLRLSCTASGFTFGNFGIHWVRQAPGKGLEWVAVISYDGTDKFYADPVKGRFIISRDNSMNILYLQMNSLRAEDTAVYYCAKDGEMELRGYYYYYGMDVWGQGTTVTVSS VL: DIQMTQSPSSVSASVGDRVTITCRASQGINTWLAWYQQKPGTAPKLLIFAASSLESGVPSRFSGSGFGTDFTLTISSLQSEDLATYFCQQVHSPPYTFGQGTKLEIK | binds | binds |  | 
H4H15347P (antibody, human IgG4, V domains shown, Capture mAb of the final ELISA; also called anti-human C19orf80 (ANGPTL8) (H4H15347P); biotinylated-H4H15347P) VH: EVQLVESGGGLVQPGGSLRLSCAASGFTFRNYAMNWARQAPGKGLEWVSGITGSGGATYYADSVKGRFTISRENSKNTLFLQMDTLRAEDTAVYYCAKDRRYFPTSGGPQWGQGTLVTVSS VL: DIVMTQSPLSLPVTPGEPASISCRSSRSLLHSSGYNYLDWYLQKPGQSPQLLLYLGSNRASGVPDRFSGSGSGTYFTLKISRVDAEDVGVYYCMQALQTPWTFGQGTKVEIK |  |  | binds | binds
H4H15341P (antibody, human IgG4, V domains shown, also called biotinylated-H4H15341P) VH: EVQLVESGGGLVQPGGSLRLSCAASGFTFNNHEMNWVRQAPGKGLEWVSYISSSGNTVTYADFLKGRFTISRDNAKNSLFLQMNSLRDEDTAVYYCARDHLSGTSPLSYWGQGTLVTVSS VL: DIQMTQSPSSLSASVGDRVTITCQASQDINNYLNWFQQKPGKAPKLLIFDASNLETGVPSRFSGSGSGTDFTFTISSLQPEDIATYFCQQYENLPYTFGQGTKLEIK | binds |  |  | 
H4H15361P2 (antibody, human IgG4, V domains shown, also called anti-human C19orf80 (ANGPTL8) (H4H15361P2); biotinylated-H4H15361P2) VH: EVQLVESGGGLVQPGRSLRLSCTASGFSFGDNAMGWVRQAPGKGLEWVSFIRRKASGGTTEYAASVKGRFTISRDDSKSIAYLQMNSLKTEDTGVYYCTRGGAVYGYWGQGTLVTVSS VL: not shown |  |  | binds | binds
